Laboratory results published in the supplement of paper PMC9170038.

System: MS2 coat protein
Experiment: apparent KD of MS2 coat protein; designed switch direction (-1 OFF switch, 1 ON switch): -1; higher = weaker reporter binding
Outline: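 Apparent KD, taken as the median over clusters for each design, was obtained by curve-fitting normalised cluster fluorescence. Designed RNA switches had been transcribed on Illumina chips by stalled E. coli RNA polymerase and titrated with SNAP-549-labelled MS2 coat protein, doubling from 0.7 or 1.5 nM to 3 µM.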

[1] = input ligand: microRNA oligo, concentration not stated
[2] = Eterna round: R95, input ligand: microRNA oligo, concentration not stated
[3] = Eterna round: R95, input ligand: FMN 200 uM
[4] = Eterna round: R95, input ligand: none

AACCUGAGGCUUUGCUUUAGGUGUACAUGAGGAUCACCCAUGUAGGAUAUGGUAGGCUUUGCUUACCAGAAGGACAUUAUGAUG [JL ENG3 1.17] (Eterna round: R96, puzzle: Exclusion NG 3)
apparent KD of MS2 coat protein (input ligand: FMN 200 uM): 75.1 nM
apparent KD of MS2 coat protein [1]: 44.3 nM
apparent KD of MS2 coat protein (input ligand: none): 52.8 nM

UAGGACAAAGGAUAUACGUGUUAUGAUCGGGAUAACAAAAGACAUGAGGAUCACCCAUGUAGAAGGUUGCUUGA [EX2 B.25] (Eterna round: R97, puzzle: Exclusion 2)
apparent KD of MS2 coat protein (input ligand: FMN 200 uM): 26.2 nM
apparent KD of MS2 coat protein (input ligand: none): 17.8 nM

AAAUACCGGUGAGGAUAUUUAUAAUAGAGCUUUAUGAUAUACAUGAGGAUCACCCAUGUUACUUUAAAGAAGGCAUCGGAAUAA [Mat - Exclusion NG 2 - Mod of JL - D93] (Eterna round: R96, puzzle: Exclusion NG 2)
apparent KD of MS2 coat protein (input ligand: FMN 200 uM): 15.4 nM
apparent KD of MS2 coat protein [1]: 13.9 nM
apparent KD of MS2 coat protein (input ligand: none): 18.9 nM

CAAAUCUGAGGAUAUCGAUAUUUGUACAUGAGGAUCACCCAUGUCCUAUUUAUUAUAUUUCGAGAAGGCAGUGUAU [JR_E5_Sub094] (puzzle: Exclusion 5)
apparent KD of MS2 coat protein [2]: 19.2 nM

AUCAGCUCGUGAGGAUAUACAUGAGGAUCACCCAUGUGGUCAUUAGCAGCUUCGGCUGCAUUAAUGUAGAAGGCACGAGCUGAU [ENG2/8-A2] (Eterna round: R96, puzzle: Exclusion NG 2)
apparent KD of MS2 coat protein (input ligand: FMN 200 uM): 360 nM
apparent KD of MS2 coat protein [1]: 732 nM
apparent KD of MS2 coat protein (input ligand: none): 829 nM

UGCGUUCAAGGAUAUACAUGAGGAUCACCCAUGUGGAUGGCCGUUGUGUGAACACUUAGUAGAAGGUGACACGG [Eternabot (L2) Solution 5] (Eterna round: R97, puzzle: Exclusion 3)
apparent KD of MS2 coat protein (input ligand: FMN 200 uM): 51.8 nM
apparent KD of MS2 coat protein (input ligand: none): 71.2 nM

ACUUUUUGAGGAUAUACAUUUAUCCACAUGAGGAUCACCCAUGUACAAACAUGUAUUUGUGUAGAAGGCAGAAGAA [JR_Ex5_Sub069] (Eterna round: R97, puzzle: Exclusion 5)
apparent KD of MS2 coat protein (input ligand: FMN 200 uM): 54.5 nM
apparent KD of MS2 coat protein (input ligand: none): 60.7 nM

GUGGCAUGAGGAUAUCGAGGUUAGUACAUGAGGAUCACCCAUGUUAUCCAGGUGUCGGUUCGAGAAGGCAUGGCAC [LRO-Ex5-13] (puzzle: Exclusion 5)
apparent KD of MS2 coat protein [2]: 250 nM

GUCCUCGUGGCGCCUAAACACAUGAGGAUCACCCAUGUACAGGCUUUUUGCCGUCUUAUAAUAAAACCGAGGAUACG [Zaveonqu] (puzzle: Sensor v3, turn-off variant 1)
apparent KD of MS2 coat protein [3]: 20.3 nM
apparent KD of MS2 coat protein [2]: 121 nM
apparent KD of MS2 coat protein [4]: 20.9 nM

AGACGUUAACAGGAUAUGGCCCUGCCGCAAGCGUUAGAAGGGUUGACAUGAGGAUCACCCAUGUGUGAUAGAAG [Eternabot (L1) Solution 95] (Eterna round: R97, puzzle: Exclusion 6)
apparent KD of MS2 coat protein (input ligand: FMN 200 uM): 217 nM
apparent KD of MS2 coat protein (input ligand: none): 316 nM

AACAAGCUUUUAAGAUCCUACAUGAGGAUCACCCAUGUGCUCGUCUUGUAACGUACUGUGACGAAAGUCACGGUACG [JL TOV1 3.29] (Eterna round: R97, puzzle: Sensor, turn-off variant 1)
apparent KD of MS2 coat protein (input ligand: FMN 200 uM): 233 nM
apparent KD of MS2 coat protein (input ligand: none): 182 nM

AUUUAUGGAGGAUAUACUUGAGGAUCACCCAAGUGGAGUCCCAAAUGGGCGGUAAAUAGUAGAAGGCCGUCUUA [jl-ex3-4.49 ViennaUCT mod] (Eterna round: R97, puzzle: Exclusion 3)
apparent KD of MS2 coat protein (input ligand: FMN 200 uM): 17.2 nM
apparent KD of MS2 coat protein (input ligand: none): 16.5 nM

UUUUAACAUGAGGAUCACCCAUGUGAGGAUAUCGAAAUUUAUAUUUAUAUUAAUAAAACGAGAAGGCACAUUUU [JMF 75] (puzzle: Exclusion 1)
apparent KD of MS2 coat protein [3]: 119 nM
apparent KD of MS2 coat protein [2]: 70.4 nM
apparent KD of MS2 coat protein [4]: 87.4 nM

AUACCACGAGGAUAUCGUCUAUAAUACAUGAGGAUCACCCAUGUUAUAUCUGUAAUGUUUCGAGAAGGCGUGUGUU [JR_E5_Sub084] (puzzle: Exclusion 5)
apparent KD of MS2 coat protein [2]: 17.9 nM

AAUGGAUGUGUUAGGAUAUCCGGAGGGAAACCUCCGGAGAAGGAACAUGAGGAUCACCCAUGUAUGUAAAAUAC [AK-MS2ROC-r4-Bmoexclusion4-3] (Eterna round: R97, puzzle: Brourd's mod of Exclusion 4)
apparent KD of MS2 coat protein (input ligand: FMN 200 uM): 449 nM
apparent KD of MS2 coat protein (input ligand: none): 111 nM

GUUUCACAUGAGGAUCACCCAUGUGAGGAUAUCCAUUUGUUAACCGUAGUUAAUAGAUGGAGAAGGCGCGUGAU [JRxlusion 6 - Jieux - Exclusion 1] (Eterna round: R97, puzzle: Exclusion 1)
apparent KD of MS2 coat protein (input ligand: FMN 200 uM): 66.6 nM
apparent KD of MS2 coat protein (input ligand: none): 62.9 nM

CCCAGGGCAGGAUAUAGAGGGUGAAACAUGAGGAUCACCCAUGUGACCUCGGAACAGCUGCUAGAAGGGCCAAAUU [Eszaraxe] (puzzle: Exclusion 5)
apparent KD of MS2 coat protein [3]: 19.2 nM
apparent KD of MS2 coat protein [2]: 15.3 nM
apparent KD of MS2 coat protein [4]: 16.3 nM

CACUUGGCAGGAUAUGCAAUUUUAGACAUGAGGAUCACCCAUGUGAUCAUUCCAUAUUAUGCAGAAGGGCCUAAAC [JR_E5_Sub050] (puzzle: Exclusion 5)
apparent KD of MS2 coat protein [2]: 214 nM

UUAAUUAGCUCGCUAGAUCCUCACAUGAGGAUCACCCAUGUGCAGGAUAUCAGCUCGUUUAGAGCUGAGAAGGGCACUGCGAGC [ExNG3/10-A2] (Eterna round: R96, puzzle: Exclusion NG 3)
apparent KD of MS2 coat protein (input ligand: FMN 200 uM): 147 nM
apparent KD of MS2 coat protein [1]: 120 nM
apparent KD of MS2 coat protein (input ligand: none): 114 nM

CGGGACCGAGGAUAUACAUGUGGACUCGAGUUGACGUUGGGACAUGAGGAUCACCCAUGUAGAAGGCGGAUCUU [Eternabot (L2) Solution 57] (Eterna round: R97, puzzle: Exclusion 2)
apparent KD of MS2 coat protein (input ligand: FMN 200 uM): 270 nM
apparent KD of MS2 coat protein (input ligand: none): 741 nM

CAGGGCGCAGGAUAUAUCACAAUGCACAUGAGGAUCACCCAUGUCAUCCUCGCGCUUGAGAUAGAAGGGUGAAACC [Eternabot (L1) Solution 65] (Eterna round: R97, puzzle: Exclusion 5)
apparent KD of MS2 coat protein (input ligand: FMN 200 uM): 21.1 nM
apparent KD of MS2 coat protein (input ligand: none): 23.7 nM

CUUUUGUGAGGAUAUCAGUAGUAGAACAAUAGUACUACUACUGAGAAGGCACAUGAGGAUCACCCAUGUUCUUC [Fiskers Ex 4 Super stable 44 mod 5] (puzzle: Exclusion 4)
apparent KD of MS2 coat protein [2]: 27.8 nM

CGCUAGUCAGGAUAUACGAACAUGUCAAAAGACGUGAAGGGACAUGAGGAUCACCCAUGUAGAAGGGACUAGCA [salish99_ex2_r3_014] (Eterna round: R96, puzzle: Exclusion 2)
apparent KD of MS2 coat protein (input ligand: FMN 200 uM): 165 nM
apparent KD of MS2 coat protein [1]: 22.2 nM
apparent KD of MS2 coat protein (input ligand: none): 31.5 nM

CGGUGCUGAGGAUAUACAUGAGGAUCACCCAUGUGUGCCAGCUAGAAGACUGGCACUUGUAGAAGGCAGUACUG [Mat - Exclusion 3 - Mod of JL D90] (puzzle: Exclusion 3)
apparent KD of MS2 coat protein [2]: 10.3 nM

CUUAGCCUAAAAUCACGCAAGCCUUUUGCUUGUCUUAAGACAUGAGGAUCACCCAUGUCCGGGCUGAACUUAUGGAA [Geanon] (puzzle: Sensor v3, turn-off variant 2)
apparent KD of MS2 coat protein [3]: 17.4 nM
apparent KD of MS2 coat protein [2]: 33.3 nM
apparent KD of MS2 coat protein [4]: 16.6 nM

CUGAGGUAGCGGUCCUAUGACAUGAGGAUCACCCAUGUACCUUGCUACGAGCUUUUUGCUCGUCUUAUAAUUCUCAG [Mat - Sensor v3 - turn-off var 1 - JL Mod - D31] (puzzle: Sensor v3, turn-off variant 1)
apparent KD of MS2 coat protein [3]: 151 nM
apparent KD of MS2 coat protein [2]: 96.5 nM
apparent KD of MS2 coat protein [4]: 247 nM
